What follows are substances tested against HLA-A*02:01 (Homo sapiens, UniProt P04439, D140Y/D185E/D98H/E176V/E277Q/G131W/G231S/I119V/I121R/I166T/I218V/L300P/L318F/N151K/N90K/P208A/P217A/Q86G/Q94H/R138H/R169H/T345S) (assay: MHC binding assay: UV-ligand exchange with beta2m ELISA (peptide exchange yield)). Conditions: binding to HLA-A*02:01.
Procedure, shortened: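 Peptide-MHC complexes formed by UV-ligand exchange, a UV-cleavable peptide being replaced by the candidate peptide. Exchange products diluted 100-fold, captured on streptavidin-coated plates for 1h at 37° C, then detected with 2 ug/ml HRP anti-β2m (1h, 37° C) and TMB, absorbance 450 nm; value is exchange yield.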

Substance | Peptide exchange (MHC class I binding score, peptide exchange yield)
250 (ALSEEGLLVYL; listed as Homo sapiens) [compound 250] | “+++” (≥50 = +++)
239 (AAFAGKLLSV; listed as Homo sapiens) [compound 239] | “+++” (≥50 = +++)
124 (ALYETELADA; listed as Homo sapiens) [compound 124] | “++” (≥20% = ++)
208 (KISPVTFSV; listed as Homo sapiens) [compound 208] | “+++” (≥50 = +++)
96 (YIFTDNPAAV; listed as Homo sapiens) [compound 96] | “+++” (≥50 = +++)
133 (KVLSNIHTV; listed as Homo sapiens) [compound 133] | “++” (≥20% = ++)
1 (SLMEPPAVLLL; listed as Homo sapiens) [compound 1] | “+++” (≥50 = +++)
177 (YLLPEEYTSTL; listed as Homo sapiens) [compound 177] | “++++” (≥75% = ++++)
140 (YMDAPKAAL; listed as Homo sapiens) [compound 140] | “++” (≥20% = ++)
119 (FLYIGDIVSL; listed as Homo sapiens) [compound 119] | “++++” (≥75% = ++++)
38 (FLLEDDIHVS; listed as Homo sapiens) [compound 38] | “+++” (≥50 = +++)
33 (VLLSLLEKV; listed as Homo sapiens) [compound 33] | “++” (≥20% = ++)
277 (LLPPLESLATV; listed as Homo sapiens) [compound 277] | “++” (≥20% = ++)
282 (LLADVVPTT; listed as Homo sapiens) [compound 282] | “+++” (≥50 = +++)
39 (SVAPNLPAV; listed as Homo sapiens) [compound 39] | “+++” (≥50 = +++)
5 (HLTEVYPEL; listed as Homo sapiens) [compound 5] | “+++” (≥50 = +++)
242 (AIAYILQGV; listed as Homo sapiens) [compound 242] | “++” (≥20% = ++)
344 (YLQDQHLLLTV; listed as Homo sapiens) [compound 344] | “+++” (≥50 = +++)

Substance | Peptide exchange (MHC class I binding score, peptide exchange yield)
110 (FLSQVDFEL; listed as Homo sapiens) [compound 110] | “+++” (≥50 = +++)
182 (MLLEAPGIFL; listed as Homo sapiens) [compound 182] | “+++” (≥50 = +++)
122 (FLLAEDDIYL; listed as Homo sapiens) [compound 122] | “+++” (≥50 = +++)
136 (YLADPSNLFVV; listed as Homo sapiens) [compound 136] | “+++” (≥50 = +++)
378 (ALGYFVPYV; listed as Homo sapiens) [compound 378] | “+++” (≥50 = +++)
296 (FMEGAIIYV; listed as Homo sapiens) [compound 296] | “+++” (≥50 = +++)
165 (SLLDEIRAV; listed as Homo sapiens) [compound 165] | “+++” (≥50 = +++)
235 (YLNDLHEVLL; listed as Homo sapiens) [compound 235] | “++++” (≥75% = ++++)
312 (IISDLTIAL; listed as Homo sapiens) [compound 312] | “+++” (≥50 = +++)
139 (SVMEVNSGIYRV; listed as Homo sapiens) [compound 139] | “+++” (≥50 = +++)
251 (ALYTGFSILV; listed as Homo sapiens) [compound 251] | “++” (≥20% = ++)
76 (ILIDSIYKV; listed as Homo sapiens) [compound 76] | “+++” (≥50 = +++)
59 (IMEDIILTL; listed as Homo sapiens) [compound 59] | “+++” (≥50 = +++)
214 (FLLDLDPLLL; listed as Homo sapiens) [compound 214] | “+++” (≥50 = +++)
45 (SLWQDIPDV; listed as Homo sapiens) [compound 45] | “+++” (≥50 = +++)
252 (LLIGTDVSL; listed as Homo sapiens) [compound 252] | “+++” (≥50 = +++)
198 (KTINKVPTV; listed as Homo sapiens) [compound 198] | “+++” (≥50 = +++)

More lines, now with the values ahead:

Peptide exchange (MHC class I binding score, peptide exchange yield) | Substance
“+++” (≥50 = +++) | 547 (TLDITPHTV; listed as Homo sapiens) [compound 547]
“+++” (≥50 = +++) | 549 (AMLENASDIKL; listed as Homo sapiens) [compound 549]
“+++” (≥50 = +++) | 601 (SAFPFPVTV; listed as Homo sapiens) [compound 601]
“+++” (≥50 = +++) | 531 (YTLPIASSIRL; listed as Homo sapiens) [compound 531]
“++++” (≥75% = ++++) | 576 (ILLNNSGQIKL; listed as Homo sapiens) [compound 576]
“+++” (≥50 = +++) | 463 (SLVESHLSDQLTL; listed as Homo sapiens) [compound 463]
“+++” (≥50 = +++) | 502 (RLLAQVPGL; listed as Homo sapiens) [compound 502]
“+++” (≥50 = +++) | 391 (YVYPQRLNFV; listed as Homo sapiens) [compound 391]
“++” (≥20% = ++) | 559 (VTVPPGPSL; listed as Homo sapiens) [compound 559]
“+++” (≥50 = +++) | 609 (ALWKQLLEL; listed as Homo sapiens) [compound 609]
“+++” (≥50 = +++) | 477 (ALLPASGQIAL; listed as Homo sapiens) [compound 477]
“+++” (≥50 = +++) | 623 (YLVEDIQHI; listed as Homo sapiens) [compound 623]
“+++” (≥50 = +++) | 612 (YLYNEGLSV; listed as Homo sapiens) [compound 612]
“++++” (≥75% = ++++) | 466 (VLIANLEKL; listed as Homo sapiens) [compound 466]
“++” (≥20% = ++) | 402 (VLFSGALLGL; listed as Homo sapiens) [compound 402]
“+++” (≥50 = +++) | 544 (LLWDVPAPSL; listed as Homo sapiens) [compound 544]

Peptide exchange (MHC class I binding score, peptide exchange yield) | Substance
“+++” (≥50 = +++) | 563 (WLLPYNGVTV; listed as Homo sapiens) [compound 563]
“++++” (≥75% = ++++) | 438 (KLLPLAGLYL; listed as Homo sapiens) [compound 438]
“++” (≥20% = ++) | 511 (FLDPYCSASV; listed as Homo sapiens) [compound 511]
“+++” (≥50 = +++) | 439 (YLLQEIYGI; listed as Homo sapiens) [compound 439]
“+++” (≥50 = +++) | 473 (AMATESILHFA; listed as Homo sapiens) [compound 473]
“++” (≥20% = ++) | 409 (LLDAMNYHL; listed as Homo sapiens) [compound 409]
“+++” (≥50 = +++) | 401 (ILLDDTGLAYI; listed as Homo sapiens) [compound 401]
“+++” (≥50 = +++) | 554 (LLMPSSEDLLL; listed as Homo sapiens) [compound 554]
“+++” (≥50 = +++) | 557 (KLYDDMIRL; listed as Homo sapiens) [compound 557]
“++” (≥20% = ++) | 526 (RLAEVGQYEQV; listed as Homo sapiens) [compound 526]
“+++” (≥50 = +++) | 446 (QLIPALAKV; listed as Homo sapiens) [compound 446]
“+++” (≥50 = +++) | 457 (SLLPGNLVEKV; listed as Homo sapiens) [compound 457]
“++” (≥20% = ++) | 380 (TLIEDEIATI; listed as Homo sapiens) [compound 380]
“++” (≥20% = ++) | 580 (LLMENAERV; listed as Homo sapiens) [compound 580]
“++” (≥20% = ++) | 538 (LLLAHIIAL; listed as Homo sapiens) [compound 538]
“+++” (≥50 = +++) | 528 (SVAEGRALMSV; listed as Homo sapiens) [compound 528]

Source: patent US10464978B2, “Peptides and combination of peptides for use in immunotherapy against ovarian cancer and other cancers” (immatics biotechnologies GmbH, priority 2015, dated 2019)
